Assay results: patent publication US20050282743A1, “Molecular interactions in cells” (Arbor Vita Corporation, priority 2001, published 2005)

T1: GST-PTPL1 PDZ domain 2 (Homo sapiens (Human)), Q12923
T1 chain: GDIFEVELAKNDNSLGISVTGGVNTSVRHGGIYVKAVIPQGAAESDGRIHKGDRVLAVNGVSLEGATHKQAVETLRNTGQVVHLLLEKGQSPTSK

T2: GST-AIPC PDZ domain 1 (Homo sapiens (Human)), O15018
T2 chain: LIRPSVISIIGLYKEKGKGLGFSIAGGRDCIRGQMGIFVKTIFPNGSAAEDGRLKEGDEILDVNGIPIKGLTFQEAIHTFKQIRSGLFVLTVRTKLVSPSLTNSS

T3: GST-KIAA1526 PDZ domain 1 (Homo sapiens (Human)), Q9P202
T3 chain: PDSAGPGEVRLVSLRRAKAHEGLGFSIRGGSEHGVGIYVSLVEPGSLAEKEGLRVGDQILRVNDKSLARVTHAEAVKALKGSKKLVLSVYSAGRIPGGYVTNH

T4: GST-INADL PDZ domain 3 (Homo sapiens (Human)), Q8NI35
T4 chain: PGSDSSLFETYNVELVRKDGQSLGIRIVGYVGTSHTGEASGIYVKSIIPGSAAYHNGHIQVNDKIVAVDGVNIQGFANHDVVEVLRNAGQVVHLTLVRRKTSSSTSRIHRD

T5: GST-KIAA0382 PDZ domain 1 (Canis lupus familiaris (Dog) (Canis familiaris)), A0A8I3
T5 chain: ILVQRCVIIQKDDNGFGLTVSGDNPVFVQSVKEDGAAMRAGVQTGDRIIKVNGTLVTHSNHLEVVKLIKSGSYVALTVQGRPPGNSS

T6: GST-TIP1 PDZ domain 1 (Table 9 insert) (Homo sapiens (Human)), O14907
T6 chain: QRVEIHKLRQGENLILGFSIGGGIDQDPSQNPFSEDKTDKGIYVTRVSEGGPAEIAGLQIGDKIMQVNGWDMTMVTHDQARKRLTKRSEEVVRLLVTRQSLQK

T7: GST-APXL-1 PDZ domain 1 (Homo sapiens (Human)), Q13796
T7 chain: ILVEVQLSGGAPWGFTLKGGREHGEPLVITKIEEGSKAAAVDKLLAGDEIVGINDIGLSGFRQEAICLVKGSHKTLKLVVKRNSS

T8: GST-FLJ00011 PDZ domain 1 (Homo sapiens (Human)), Q9H5P4
T8 chain: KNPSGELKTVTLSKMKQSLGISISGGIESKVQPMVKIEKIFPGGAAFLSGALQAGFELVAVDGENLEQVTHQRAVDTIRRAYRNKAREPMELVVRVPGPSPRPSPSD

T9: GST-HEMBA 1003117 PDZ domain 1 (Homo sapiens (Human)), Q96JH8
T9 chain: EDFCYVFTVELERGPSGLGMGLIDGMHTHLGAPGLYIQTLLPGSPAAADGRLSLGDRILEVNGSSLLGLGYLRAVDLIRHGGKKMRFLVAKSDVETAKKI

T10: GST-KIAA0807(S) PDZ domain 1 (Homo sapiens (Human)), Q6P0Q8
T10 chain: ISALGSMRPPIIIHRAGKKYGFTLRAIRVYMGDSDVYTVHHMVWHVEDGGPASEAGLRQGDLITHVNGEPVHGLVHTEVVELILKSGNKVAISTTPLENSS

T11: GST-LIM-RIL PDZ domain 1 (Homo sapiens (Human)), P50479
T11 chain: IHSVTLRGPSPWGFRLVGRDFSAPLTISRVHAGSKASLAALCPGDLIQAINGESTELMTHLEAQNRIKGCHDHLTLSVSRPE

T12: GST-FLJ 10324 PDZ domain 1 [GST: P08515]
T12 chain: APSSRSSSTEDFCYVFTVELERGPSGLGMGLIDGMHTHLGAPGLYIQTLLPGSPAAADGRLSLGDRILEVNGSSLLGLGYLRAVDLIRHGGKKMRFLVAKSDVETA

T13: GST-Outer Membrane PDZ domain 1 (Homo sapiens (Human)), P57105
T13 chain: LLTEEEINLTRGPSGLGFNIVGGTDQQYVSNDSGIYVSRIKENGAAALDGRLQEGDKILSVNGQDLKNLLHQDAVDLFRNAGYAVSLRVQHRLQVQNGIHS

T14: GST-Syntrophin gamma 1 PDZ domain 1 (Homo sapiens (Human)), Q9NSN8
T14 chain: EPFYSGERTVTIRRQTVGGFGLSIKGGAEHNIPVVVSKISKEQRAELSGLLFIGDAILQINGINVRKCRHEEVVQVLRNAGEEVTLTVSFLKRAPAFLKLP

T15: GST-MINT1 PDZ domain 2 (Mus musculus (Mouse)), B2RUJ5
T15 chain: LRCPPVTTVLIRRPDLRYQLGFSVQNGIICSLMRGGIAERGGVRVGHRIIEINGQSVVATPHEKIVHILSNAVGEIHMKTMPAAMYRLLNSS

B1: TAX (peptide)
peptide: QISPGGLEPPSEKHFRETEV
modifications: not checked
B2: LPAP (peptide)
peptide: AWDDSARAAGGQGLHVTAL
modifications: not checked
B3: AdenoE4 typ9 (peptide)
peptide: VGTLLLERVIFPSVKIATLV
modifications: not checked
B4: a-actinin 2 (peptide)
peptide: VPGALDYAAFSSALYGESDL
modifications: not checked
B5: NMDA Glutamate Receptor 2C (cysteine-free) (peptide)
peptide: TQGFPGPATWRRISSLESEV
modifications: not checked
Further: key of the grades not given here.

Biological target: T1, GST-PTPL1 PDZ domain 2 (Homo sapiens …)
Assay: G' assay
In the case of B1, the Classification is reported as 2 A450 class.
In the case of B2, the Classification is reported as 1 A450 class.
In the case of B3, the Classification is reported as 3 A450 class.
B4 gave a Classification of 1 A450 class.
B5 gave a Classification of 5 A450 class.

Biological target: T2, GST-AIPC PDZ domain 1 (Homo sapiens …)
Assay: G' assay
Binder B1 has a Classification of 1 A450 class.
B4 showed a Classification of 2 A450 class.
For B5, the Classification was 3 A450 class.

Biological target: T3, GST-KIAA1526 PDZ domain 1 (Homo sapiens …)
Assay: G' assay
For B1, the Classification was 3 A450 class.
B2 gave a Classification of 1 A450 class.
B4 showed a Classification of 1 A450 class.
B5 was tested, and the Classification was 3 A450 class.

Biological target: T4, GST-INADL PDZ domain 3 (Homo sapiens …)
Assay: G' assay
For B1, the Classification was 1 A450 class.
Binder B4 has a Classification of 1 A450 class.
For B5, the Classification was 2 A450 class.

The binders below were run against GST-Atrophin-1 Interacting Protein PDZ domain 3 (Rattus norvegicus (Rat)), O88382 (assay: G' assay).
Chain of GST-Atrophin-1 Interacting Protein PDZ domain 3 (Rattus norvegicus (Rat)), O88382 (O88382 774-865, tags or fused parts left off): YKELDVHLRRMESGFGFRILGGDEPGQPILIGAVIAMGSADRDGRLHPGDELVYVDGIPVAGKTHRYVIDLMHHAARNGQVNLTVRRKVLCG
In the case of B1, the Classification is reported as 1 A450 class.
With B3 the Classification was 4 A450 class.
B5 was tested, and the Classification was 2 A450 class.

Biological target: T5, GST-KIAA0382 PDZ domain 1 (Canis lupus …)
Assay: G' assay
B2 showed a Classification of 5 A450 class.
With B3 the Classification was 1 A450 class.
Work on B5 yielded a Classification of 1 A450 class.

What follows are binders tested against GST-BAI-1 Associated Protein PDZ domain 2 (Mus musculus (Mouse)), Q6RHR9 (assay: G' assay).
Chain of GST-BAI-1 Associated Protein PDZ domain 2 (Mus musculus (Mouse)), Q6RHR9 (Q6RHR9 455-558): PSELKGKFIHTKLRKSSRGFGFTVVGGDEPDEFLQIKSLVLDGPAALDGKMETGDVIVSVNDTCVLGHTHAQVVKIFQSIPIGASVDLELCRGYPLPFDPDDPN
In the case of B1, the Classification is reported as 5 A450 class.
B2 was tested, and the Classification was 2 A450 class.
B3 gave a Classification of 5 A450 class.
B4 was tested, and the Classification was 1 A450 class.
For B5, the Classification was 4 A450 class.

What follows are binders tested against GST-PAR3 PDZ domain 3 (Homo sapiens (Human)), Q8TEW0 (assay: G' assay).
Chain of GST-PAR3 PDZ domain 3 (Homo sapiens (Human)), Q8TEW0 (Q8TEW0 579-681): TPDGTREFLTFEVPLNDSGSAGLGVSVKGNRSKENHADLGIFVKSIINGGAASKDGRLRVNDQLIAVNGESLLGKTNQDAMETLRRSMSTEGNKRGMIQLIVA
B4 showed a Classification of 1 A450 class.

Biological target: T6, GST-TIP1 PDZ domain 1 (Table 9 insert) …
Assay: G' assay
B1 showed a Classification of 5 A450 class.
Work on B2 yielded a Classification of 5 A450 class.
Binder B4 has a Classification of 5 A450 class.
With B5 the Classification was 5 A450 class.

Biological target: T7, GST-APXL-1 PDZ domain 1 (Homo sapiens …)
Assay: G' assay
For B2, the Classification was 1 A450 class.
B4 was tested, and the Classification was 5 A450 class.
With B5 the Classification was 1 A450 class.

Biological target: T8, GST-FLJ00011 PDZ domain 1 (Homo sapiens …)
Assay: G' assay
B1 showed a Classification of 1 A450 class.
B2 showed a Classification of 4 A450 class.
For B3, the Classification was 1 A450 class.
B5 gave a Classification of 2 A450 class.

Biological target: T9, GST-HEMBA 1003117 PDZ domain 1 (Homo …)
Assay: G' assay
B2 gave a Classification of 1 A450 class.
B3 showed a Classification of 3 A450 class.

Biological target: T10, GST-KIAA0807(S) PDZ domain 1 (Homo …)
Assay: G' assay
B1 was tested, and the Classification was 5 A450 class.
B2 showed a Classification of 5 A450 class.
B3 was tested, and the Classification was 3 A450 class.
With B4 the Classification was 5 A450 class.
B5 showed a Classification of 5 A450 class.

The binders below were run against GST-KIAA1634 PDZ domain 5 (Homo sapiens (Human)), Q5TCQ9 (assay: G' assay).
Chain of GST-KIAA1634 PDZ domain 5 (Homo sapiens (Human)), Q5TCQ9 (Q5TCQ9 other isoform, or with tags, fused parts or gaps): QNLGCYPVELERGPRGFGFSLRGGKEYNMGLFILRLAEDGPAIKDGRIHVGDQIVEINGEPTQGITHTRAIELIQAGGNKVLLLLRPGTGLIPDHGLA
Binder B1 has a Classification of 1 A450 class.
B4 showed a Classification of 5 A450 class.
Work on B5 yielded a Classification of 1 A450 class.

The binders below were run against GST-Atrophin-1 Interacting Protein PDZ domain 5 (Rattus norvegicus (Rat)), O88382 (assay: G' assay).
Chain of GST-Atrophin-1 Interacting Protein PDZ domain 5 (Rattus norvegicus (Rat)), O88382 (O88382 1128-1225): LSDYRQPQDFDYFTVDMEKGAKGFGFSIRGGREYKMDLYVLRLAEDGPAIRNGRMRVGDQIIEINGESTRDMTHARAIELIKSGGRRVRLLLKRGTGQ
B1 was tested, and the Classification was 3 A450 class.
For B2, the Classification was 2 A450 class.
B4 was tested, and the Classification was 5 A450 class.
B5 gave a Classification of 5 A450 class.

Biological target: T11, GST-LIM-RIL PDZ domain 1 (Homo sapiens …)
Assay: G' assay
B1 was tested, and the Classification was 1 A450 class.
B4 gave a Classification of 5 A450 class.
Work on B5 yielded a Classification of 5 A450 class.

Biological target: T12, GST-FLJ 10324 PDZ domain 1 [GST: P08515]
Assay: G' assay
B1 was tested, and the Classification was 1 A450 class.
Work on B2 yielded a Classification of 1 A450 class.
Work on B3 yielded a Classification of 3 A450 class.

Biological target: T13, GST-Outer Membrane PDZ domain 1 (Homo …)
Assay: G' assay
With B1 the Classification was 5 A450 class.
B3 gave a Classification of 5 A450 class.
B4 was tested, and the Classification was 1 A450 class.
B5 showed a Classification of 5 A450 class.

Biological target: T14, GST-Syntrophin gamma 1 PDZ domain 1 …
Assay: G' assay
In the case of B1, the Classification is reported as 5 A450 class.
For B4, the Classification was 1 A450 class.
In the case of B5, the Classification is reported as 4 A450 class.

These binders were tested against GST-BAI-1 Associated Protein PDZ domain 6 (Homo sapiens (Human)), Q96QZ7 (assay: G' assay).
Chain of GST-BAI-1 Associated Protein PDZ domain 6 (Homo sapiens (Human)), Q96QZ7 (Q96QZ7 1143-1233): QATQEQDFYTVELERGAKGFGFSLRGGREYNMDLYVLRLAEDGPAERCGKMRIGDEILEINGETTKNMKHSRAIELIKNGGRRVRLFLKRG
B1 was tested, and the Classification was 1 A450 class.
In the case of B3, the Classification is reported as 1 A450 class.
With B4 the Classification was 5 A450 class.
In the case of B5, the Classification is reported as 2 A450 class.

These binders were tested against GST-KIAA807 [GST: P08515] (assay: G' assay).
Chain of GST-KIAA807 [GST: P08515] (P08515 whole entry): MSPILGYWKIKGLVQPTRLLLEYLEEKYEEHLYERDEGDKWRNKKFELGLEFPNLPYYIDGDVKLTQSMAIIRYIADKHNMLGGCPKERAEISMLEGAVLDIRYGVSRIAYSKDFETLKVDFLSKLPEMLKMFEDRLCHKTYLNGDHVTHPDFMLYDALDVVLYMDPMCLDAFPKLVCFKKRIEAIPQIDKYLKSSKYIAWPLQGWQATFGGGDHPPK
In the case of B1, the Classification is reported as 5 A450 class.
B2 gave a Classification of 5 A450 class.
Binder B3 has a Classification of 4 A450 class.
Work on B4 yielded a Classification of 5 A450 class.
B5 showed a Classification of 4 A450 class.

Biological target: T15, GST-MINT1 PDZ domain 2 (Mus musculus …)
Assay: G' assay
B2 was tested, and the Classification was 1 A450 class.
B3 showed a Classification of 2 A450 class.
In the case of B4, the Classification is reported as 1 A450 class.
Work on B5 yielded a Classification of 1 A450 class.
